Assay [1] deals with recombinant HIV-1BaL gp120 (HIV-1 BaL). In words: ELISA on immobilized gp120BaL in 25 mM DTT.
Assay [2] has the same target. In words: ELISA on immobilized gp120BaL in 100 mM β-mercaptoethanol.

Turning to MAb 2G12 (antibody), the percent of the binding seen under native conditions in assay [1] and in assay [2] was 50% throughout.
In the case of MAb IgG1 b12 (antibody), the percent of the binding seen under native conditions in assay [1] and in assay [2] was 50% each time.

For the origin of these results see patent publication EP2265632B1, “CD4-RELATED POLYPEPTIDES AND METHODS OF USE” (priority 2008, dated 2009).
